Data published in patent US20250353921A1 (ASTRIA THERAPEUTICS, published 2025).

B1: MAB1 IgG1 (antibody)
heavy: not shown
light: EIVLTQSPATLSLSPGERATLSCRASSSVSYMHWYQQKPGQAPRPWIYATSNRATGIPARFSGSGSGTDYTLTISSLEPEDFAVYYCQQFGAWPWTFGQGTKVEIKRTVAAPSVFIFPPSDEQLKSGTASVVCLLNNFYPREAKVQWKVDNALQSGNSQESVTEQDSKDSTYSLSSTLTLSKADYEKHKVYACEVTHQGLSSPVTKSFNRGEC
notes: Human IgG1, kappa
B2: GBR 830 (telazorlimab) (antibody, human IgG1, kappa)
heavy: not shown
light: EIVLTQSPATLSLSPGERATLSCRASSSVSYMHWYQQKPGQAPRPWIYATSNRATGIPARFSGSGSGTDYTLTISSLEPEDFAVYYCQQWSSNPWTFGQGTKVEIKRTVAAPSVFIFPPSDEQLKSGTASVVCLLNNFYPREAKVQWKVDNALQSGNSQESVTEQDSKDSTYSLSSTLTLSKADYEKHKVYACEVTHQGLSSPVTKSFNRGEC
notes: IgG1; also called Antibody 830; ISB830

How the values were obtained:
[1] = molecular target: T1, Human OX40 (Acro Biosystems, catalog NO: OXO-H5224) protein (human, UniProt P43489 29-216); test: SPR Biacore 8K+, single cycle kinetics, antibody captured by anti-human Fc, OX40 analyte, pH 7.4, 25 °C
T1 construct: Bought protein; also called recombinant human OX40 receptor; recombinant human OX40 protein
T1 sequence: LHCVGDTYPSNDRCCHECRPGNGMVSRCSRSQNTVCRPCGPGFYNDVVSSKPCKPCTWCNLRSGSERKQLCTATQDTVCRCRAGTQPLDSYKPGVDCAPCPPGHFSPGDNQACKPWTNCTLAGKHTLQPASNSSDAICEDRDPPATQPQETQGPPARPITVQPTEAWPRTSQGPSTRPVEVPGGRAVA

[2] = molecular target: T2, human OX40 (TNFRSF4, CD134) on cells (human, UniProt P43489 29-277); test: flow cytometry on Jurkat-NF-κB-OX40 cells, detection with PE anti-human IgG Fc, occupancy in % of the saturating dose; in the presence of 0.07 µg/ml OX40L; time point not stated on the sheet
T2 construct: also called OX40 on HPB-ALL cells; Jurkat-NFκB-OX40 cells
T2 sequence: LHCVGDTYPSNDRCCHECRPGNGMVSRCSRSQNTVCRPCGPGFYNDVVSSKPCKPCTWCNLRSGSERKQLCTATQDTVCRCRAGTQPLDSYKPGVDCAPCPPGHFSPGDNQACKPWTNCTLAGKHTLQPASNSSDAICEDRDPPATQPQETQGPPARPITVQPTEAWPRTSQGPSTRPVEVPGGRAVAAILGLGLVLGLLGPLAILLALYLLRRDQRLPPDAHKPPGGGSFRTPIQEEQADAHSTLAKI

[3] = molecular target: T2, human OX40 (TNFRSF4, CD134) on cells; test: cell-based or functional assay
[4] = molecular target: T2, human OX40 (TNFRSF4, CD134) on cells; test: flow cytometry on Jurkat-NF-κB-OX40 cells, detection with PE anti-human IgG Fc, occupancy in % of the saturating dose; no OX40L; time point (0 h or 5 h) not stated on the sheet
[5] = molecular target: T3, Human CD32a (167 Arg), Sino Biological 10374-H08H (human, UniProt P12318 34-218); test: SPR Biacore 8K+, receptor captured by anti-His, antibody as analyte
T3 construct: also called FcγRIIa167R
T3 sequence (looked up): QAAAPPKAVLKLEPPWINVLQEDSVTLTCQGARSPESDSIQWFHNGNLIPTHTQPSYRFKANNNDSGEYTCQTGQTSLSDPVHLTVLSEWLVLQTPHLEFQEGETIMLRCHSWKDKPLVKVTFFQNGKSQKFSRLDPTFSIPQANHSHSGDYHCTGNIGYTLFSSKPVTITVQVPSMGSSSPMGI

[6] = molecular target: Human CD64 (FcγRI), Sino Biological 10256-H08H (human, UniProt P12314 16-288); test: as above
[7] = molecular target: T4, Human CD32b, Sino Biological 10259-H08H (human, UniProt P31994 43-217); test: as above
T4 construct: also called FcγRIIb
T4 sequence (looked up): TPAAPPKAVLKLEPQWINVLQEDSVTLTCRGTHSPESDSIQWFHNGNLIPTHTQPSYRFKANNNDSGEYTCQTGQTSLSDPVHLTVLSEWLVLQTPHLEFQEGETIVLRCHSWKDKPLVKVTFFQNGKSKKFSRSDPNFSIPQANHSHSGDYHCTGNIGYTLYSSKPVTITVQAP

[8] = molecular target: T5, Human CD16b (NA2 allotype), Sino Biological 11046-H08H (human, UniProt O75015 17-200); test: as above
T5 construct: also called FcγRIIIb

[9] = molecular target: T6, Human CD16a (F176V), Sino Biological 10389-H08H1 (human, UniProt P08637 17-208); test: as above
T6 construct: also called FcγRIIIa176V

[10] = molecular target: T7, Human CD32a (167 His), Sino Biological 10374-H08H1 (human, UniProt P12318 34-218); test: as above
T7 construct: also called FcγRIIa167H
T7 sequence (looked up): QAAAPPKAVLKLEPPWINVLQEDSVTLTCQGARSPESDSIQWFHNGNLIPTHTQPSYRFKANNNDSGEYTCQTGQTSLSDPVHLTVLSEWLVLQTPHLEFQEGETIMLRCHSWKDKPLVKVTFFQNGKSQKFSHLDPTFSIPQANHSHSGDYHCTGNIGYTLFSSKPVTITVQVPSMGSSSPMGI

[11] = molecular target: T8, Human CD16a (176F), Sino Biological 10389-H08H (human, UniProt P08637 17-208); test: as above
T8 construct: also called FcγRIIIa176F

[12] = molecular target: T2, human OX40 (TNFRSF4, CD134) on cells; test: cell-based or functional assay; remark: listed apart in the source
[13] = molecular target: T2, human OX40 (TNFRSF4, CD134) on cells; test: cell-based or functional assay; remark: listed apart in the source
[14] = molecular target: T2, human OX40 (TNFRSF4, CD134) on cells; test: cell-based or functional assay; remark: listed apart in the source

Sequence of Human CD64 (FcγRI), Sino Biological 10256-H08H (P12314 16-288 limits assumed): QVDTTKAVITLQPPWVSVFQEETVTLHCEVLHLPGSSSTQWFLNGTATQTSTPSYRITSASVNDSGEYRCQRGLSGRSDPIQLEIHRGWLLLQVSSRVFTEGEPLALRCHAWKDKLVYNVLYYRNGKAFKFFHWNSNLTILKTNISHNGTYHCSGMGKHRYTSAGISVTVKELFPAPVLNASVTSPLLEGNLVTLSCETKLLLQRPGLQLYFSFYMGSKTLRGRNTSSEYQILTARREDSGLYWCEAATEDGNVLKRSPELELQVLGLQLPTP
T5 sequence (O75015 17-200 N65S limits assumed): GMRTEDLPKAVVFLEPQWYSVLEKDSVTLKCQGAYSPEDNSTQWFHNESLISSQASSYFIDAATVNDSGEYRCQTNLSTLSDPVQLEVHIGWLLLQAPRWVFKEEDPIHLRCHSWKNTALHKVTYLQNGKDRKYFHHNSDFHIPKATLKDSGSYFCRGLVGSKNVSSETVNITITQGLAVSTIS
T6 sequence (P08637 17-208 F176V limits assumed): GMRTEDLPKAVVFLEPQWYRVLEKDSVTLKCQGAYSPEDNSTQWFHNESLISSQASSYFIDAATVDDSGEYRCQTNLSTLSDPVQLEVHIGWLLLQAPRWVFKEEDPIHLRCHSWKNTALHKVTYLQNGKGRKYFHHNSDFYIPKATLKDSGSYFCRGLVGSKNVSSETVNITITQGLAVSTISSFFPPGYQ
T8 sequence (P08637 17-208 limits assumed): as the sequence (P08637 17-208 F176V limits assumed) above, with V160F counted along it

Row | Binder | Kd [1] | koff [1] | kon [1] | EC50 (read off the curve) [2] | Fold diff to MAB10, maximum ADCC, regulatory T cells [3] | Maximum killing (%), ADCC, regulatory T cells [3] | EC50 (read off the curve) [4] | Kd [5] | Kd [6] | Kd [7] | Kd [8] | Kd [9] | Kd [10] | Kd [11] | EC50, inhibition of IFNγ release [12] | EC50, inhibition of IL-2 release [12] | EC50, inhibition of IL-4 release [12] | EC50, inhibition of IL-5 release [12] | EC50, inhibition of IL-8 release [12] | EC50, inhibition of IL-10 release [12] | other results
1 | B1 | 6.8 nM | 0.0016 s⁻¹ | 230000 M⁻¹ s⁻¹ | ~0.2 nM | 2.27 fold | 61.9% | ~0.2 nM | 6140 nM | 5.4 nM | 11600 nM | 3630 nM | 297 nM | 4030 nM | 334 nM | 14.6 nM | 2.36 nM | 2.83 nM | 21.3 nM | 9.19 nM | 28 nM | EC50, inhibition of IL-13 release [12]: 6.2 nM; EC50, inhibition of IL-17a release [12]: 24.4 nM; EC50, inhibition of IL-21 release [12]: 2.56 nM; EC50, inhibition of IL-22 release [12]: 9.19 nM; EC50, inhibition of IL-31 release [12]: 2.51 nM; EC50, inhibition of TNF-α release [12]: 4.1 nM; Fold diff to GBR830, IFNγ [12]: 4.6 fold; Fold diff to GBR830, IL-2 [12]: 3.4 fold; Fold diff to GBR830, IL-4 [12]: 15.8 fold; Fold diff to GBR830, IL-5 [12]: 3 fold; Fold diff to GBR830, IL-8 [12]: 6.3 fold; Fold diff to GBR830, IL-10 [12]: 2.4 fold; Fold diff to GBR830, IL-13 [12]: 11.2 fold; Fold diff to GBR830, IL-21 [12]: 18.5 fold; Fold diff to GBR830, IL-31 [12]: 11.9 fold; Fold diff to GBR830, TNF-α [12]: 10.6 fold; Fold diff to MAB10, maximum ADCC, activated T cells [13]: 1.31 fold; Maximum killing (%), ADCC, activated T cells [13]: 45.6%; ADCC EC50, regulatory T cells (LDH release) [14]: 0.28 nM; Fold diff to MAB10, ADCC EC50, regulatory T cells [14]: 8.25 fold
2 | B2 | 59.3 nM | 0.0086 s⁻¹ | 150000 M⁻¹ s⁻¹ | ~0.5 nM | 1.61 fold | 44.1% | ~0.4 nM | 4690 nM | 6.2 nM | 7260 nM | 3220 nM | 330 nM | 3410 nM | 365 nM | 66.7 nM | 7.92 nM | 44.8 nM | 63.6 nM | 58.2 nM | 66.8 nM | EC50, inhibition of IL-13 release [12]: 69.6 nM; EC50, inhibition of IL-21 release [12]: 47.3 nM; EC50, inhibition of IL-31 release [12]: 29.9 nM; EC50, inhibition of TNF-α release [12]: 43.3 nM; Fold diff to MAB10, maximum ADCC, activated T cells [13]: 1.14 fold; Maximum killing (%), ADCC, activated T cells [13]: 39.6%; ADCC EC50, regulatory T cells (LDH release) [14]: 2.25 nM; Fold diff to MAB10, ADCC EC50, regulatory T cells [14]: 1.03 fold
